Laboratory results: paper PMC12422969

Target: GluA3-G (GluA3(Gly439)), flip splice form, R/G-edited, as the GluA3 part of the GluA3-G–TARP-γ2 tandem construct (rat)
Experiment: cryo-EM structure; apo state; GluA3–TARP-γ2 tandem construct purified as a complex from Expi293 cells (digitonin lysis; 50 mM Tris pH 8, 150 mM NaCl, 0.1% GDN), 2–3 mg/ml, vitrified at 4 °C

stoichiometry N: 4
Substance: GluA3-G (GluA3(Gly439)), flip splice form, R/G-edited, as the GluA3 part of the GluA3-G–TARP-γ2 tandem construct (receptor)
